Experimental data from patent publication US20210188980A1 (SHANGHAI EPIMAB BIOTHERAPEUTICS, published 2021).
Blank lines part the entries; values can stand above or below the binder they belong to.

Experiments:
Cyno LAG-3-His = Cyno LAG-3-His (cynomolgus); assay: BLI Octet, FIT-Ig captured, antigen analyte
human PD-1-His protein = biological target: T1, human PD-1-His protein (human, UniProt Q15116 25-167, limits assumed); assay: BLI Octet, FIT-Ig captured, antigen analyte
T1 construct: also called huPD-1; not shown: His tag
T1 sequence (Q15116 25-167 limits assumed): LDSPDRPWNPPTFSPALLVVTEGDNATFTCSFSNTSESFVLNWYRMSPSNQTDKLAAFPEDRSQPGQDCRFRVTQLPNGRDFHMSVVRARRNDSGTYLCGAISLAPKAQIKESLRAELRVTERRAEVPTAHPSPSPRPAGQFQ

[1] = biological target: T2, recombinant human LAG-3-his protein (Novoprotein) (human, UniProt P18627 23-450); assay: BLI Octet, FIT-Ig captured, antigen analyte
T2 construct: Bought; also called huLAG-3; not shown: His tag
T2 sequence (looked up): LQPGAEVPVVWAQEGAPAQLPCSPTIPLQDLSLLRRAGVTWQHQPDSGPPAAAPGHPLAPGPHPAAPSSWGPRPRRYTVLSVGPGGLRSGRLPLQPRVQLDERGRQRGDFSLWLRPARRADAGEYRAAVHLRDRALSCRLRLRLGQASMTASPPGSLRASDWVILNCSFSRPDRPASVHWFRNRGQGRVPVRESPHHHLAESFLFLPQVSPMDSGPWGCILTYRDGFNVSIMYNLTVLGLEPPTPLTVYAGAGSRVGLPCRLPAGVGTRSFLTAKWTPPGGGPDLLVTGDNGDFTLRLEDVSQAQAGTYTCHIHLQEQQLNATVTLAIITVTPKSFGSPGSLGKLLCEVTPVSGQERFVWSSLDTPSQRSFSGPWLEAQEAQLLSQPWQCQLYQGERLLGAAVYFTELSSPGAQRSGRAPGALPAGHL

Cyno PD-1-His = Cyno PD-1-His (cynomolgus, UniProt B0LAJ3 25-170); assay: BLI Octet, FIT-Ig captured, antigen analyte
Sequence of Cyno PD-1-His (B0LAJ3 entry or part of it limits assumed): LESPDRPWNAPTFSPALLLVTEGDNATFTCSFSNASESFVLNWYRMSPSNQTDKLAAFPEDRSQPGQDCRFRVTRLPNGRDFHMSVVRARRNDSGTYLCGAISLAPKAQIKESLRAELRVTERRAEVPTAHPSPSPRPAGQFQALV

[2] = biological target: T2, recombinant human LAG-3-his protein …; assay: BLI Octet, Ab on AHC sensor, huLAG-3-his; test group 3
Protocol: (§1) All 18 humanized antibodies (Table 34) and a chimeric antibody having the parental murine VH and VL domains (mAb747c) were ranked by dissociation rate constant (koff). Briefly, antibodies were characterized for affinities and binding kinetics by Octet®RED96 biolayer interferometry (Pall ForteBio LLC). Antibodies were captured by Anti-hIgG Fc Capture (AHC) Biosensors (Pall) at a concentration of 100 nM for 30 seconds. Sensors were then dipped into running buffer (1× pH7.2 PBS, 0.05% Tween 20, 0.1% BSA) for 60 seconds to check baseline. Binding was measured by dipping sensors into a single concentration of recombinant human LAG-3-his protein (Novoprotein). Dissociation was followed by dipping sensors into running buffer for 1200 seconds. The association and dissociation curves were fitted to a 1:1 Langmuir binding model using FortéBio Data Analysis software (Pall). In each test group, the off-rates of antibodies were able to be compared with that of mAb747c. The off-rate ratios were calculated by the off-rate of antibody to that of mAb747c of its group and were compared all together. The lower the ratio was, the higher was the affinity of the antibody.

[3] = biological target: T2, recombinant human LAG-3-his protein …; assay: BLI Octet, Ab on AHC sensor, huLAG-3-his; test group 2
Protocol: as §1, with “9” for “18”, “25)” for “34)”, “Octet RED96” for “Octet®RED96”, “FortéBio” for “ForteBio”, “Anti-HIgG” for “Anti-hIgG”, “(Pall).” for “(Pall). In each test group, the off-rates of antibodies were able to be compared with that of mAb747c. The off-rate ratios were calculated by the off-rate of antibody to that of mAb747c of its group and were compared all together. The lower the ratio was, the higher was the affinity of the antibody.”
All 13 humanized antibodies (Table 39) and chimeric anti-LAG-3 antibody mAb747c having the parental murine VH and VL domains were ranked by dissociation rate constant (koff) in the same manner described in Example 9.1 supra. In each test group, the off-rates of antibodies were able to be compared with that of mAb747c. The off-rate ratios were calculated by the off-rate of antibody to that of mAb747c of its group and were compared all together. The lower the ratio was, the higher was the affinity of the antibody.

Kd (Cyno LAG-3-His): 0.428 nM
koff (Cyno LAG-3-His): 8.17e-05 s⁻¹
kon (Cyno LAG-3-His): 191000 M⁻¹ s⁻¹
Kd (human PD-1-His protein): 1.28 nM
koff (human PD-1-His protein): 0.000239 s⁻¹
kon (human PD-1-His protein): 187000 M⁻¹ s⁻¹
Kd [1]: 1.02 nM
koff [1]: 0.000117 s⁻¹
kon [1]: 115000 M⁻¹ s⁻¹
Kd (Cyno PD-1-His): 3.49 nM
koff (Cyno PD-1-His): 0.00107 s⁻¹
kon (Cyno PD-1-His): 306000 M⁻¹ s⁻¹
B1: FIT107-1-6a-2 (bispecific antibody, human IgG1, kappa, L234A L235A)
chain 1: not shown
chain 2: EVQLVESGGGLVQPGGSLRLSCAASGFTFSFYTMSWVRQAPGKGLEWVATISGGGRDTYYPDSVKGRFTISRDNAKNSLYLQMNSLRAEDTAVYYCAGQGGNYLFAYWGQGTLVTVSSASTKGPSVFPLAPSSKSTSGGTAALGCLVKDYFPEPVTVSWNSGALTSGVHTFPAVLQSSGLYSLSSVVTVPSSSLGTQTYICNVNHKPSNTKVDKKVEPKSC
chain 3: DIQMTQSPSSLSASVGDRVTITCRASQEISGYLSWLQQKPGGAIKRLIYAASALDLGVPSRFSGSRSGSDYTLTISSLQPEDFADYYCLQYASYPLTFGQGTKLELKRTVAAPSVFIFPPSDEQLKSGTASVVCLLNNFYPREAKVQWKVDNALQSGNSQESVTEQDSKDSTYSLSSTLTLSKADYEKHKVYACEVTHQGLSSPVTKSFNRGEC
notes: FIT-Ig hexamer; outer anti-PD-1 (HumAb709-8), inner anti-LAG-3 (HumAb747V-72 with G55A)

koff [2]: 0.0119 s⁻¹
off-rate ratio to that of mAb747c [2]: 972%
B2: HumAb747-55 (antibody, human IgG1, V domains shown)
VH: EVQLVQSGAEVKKPGATVKISCKVSDFNIKDDYMHWVQQAPGKGLEWIGWIVPENGNTEYASKFQGRVTITADTSTDTAYLELSSLRSEDTAVYYCTVYGDYWGQGTTVTVSS
VL: DIQMTQSPSSLSASVGDRVTITCRASQEISGYLSWLQQKPGGAIKRLIYAASTLDSGVPSRFSGSRSGSDYTLTISSLEPEDFADYYCLQYASYPLTFGQGTKLELK
notes: humanized mAb747; human IgG1/kappa constant domains

koff [3]: 0.000247 s⁻¹
off-rate ratio to that of mAb747c [3]: 37%
B3: HumAb747V-72 (antibody, human IgG1, V domains shown)
VH: EVQLVQSGAEVKKPGATVKLSCTASGFNIKDDYMHWVKQRPEQGLDWIGWIVPRNGNTVYASKFQGKATITADTSTNTAYLELSSLRSEDTAVYYCTVYGDYWGQGTTVTVSS
VL: DIQMTQSPSSLSASVGDRVTITCRASQEISGYLSWLQQKPGGAIKRLIYAASALDLGVPSRFSGSRSGSDYTLTISSLQPEDFADYYCLQYASYPLTFGQGTKLELK
notes: engineered HumAb747-60 variant; human IgG1/kappa constant domains

koff [3]: 0.000292 s⁻¹
off-rate ratio to that of mAb747c [3]: 43%
B4: HumAb747V-71 (antibody, human IgG1, V domains shown)
VH: EVQLVQSGAEVKKPGATVKLSCTASGFNIKDDYMHWVKQRPEQGLDWIGWIVPRNGNTVYASKFQGKATITADTSTNTAYLELSSLRSEDTAVYYCTVYGDYWGQGTTVTVSS
VL: DIQMTQSPSSLSASVGDRVTITCRASQEISGYLSWLQQKPGGAIKRLIYAASALDSGVPSRFSGSRSGSDYTLTISSLQPEDFADYYCLQYASYPLTFGQGTKLELK
notes: as for B3

koff [2]: 0.00411 s⁻¹
off-rate ratio to that of mAb747c [2]: 335%
B5: HumAb747-57 (antibody, human IgG1, V domains shown)
VH: EVQLVQSGAEVKKPGATVKLSCTASDFNIKDDYMHWVQQAPGKGLEWIGWIVPENGNTEYASKFQGRVTITADTSTDTAYLELSSLRSEDTAVYYCTVYGDYWGQGTTVTVSS
VL: DIQMTQSPSSLSASVGDRVTITCRASQEISGYLSWLQQKPGGAIKRLIYAASTLDSGVPSRFSGSRSGSDYTLTISSLEPEDFADYYCLQYASYPLTFGQGTKLELK
notes: as for B2

koff [2]: 0.00405 s⁻¹
off-rate ratio to that of mAb747c [2]: 331%
B6: HumAb747-58 (antibody, human IgG1, V domains shown)
VH: EVQLVQSGAEVKKPGATVKLSCTASDFNIKDDYMHWVKQAPGKGLEWIGWIVPENGNTEYASKFQGRATITADTSTNTAYLELSSLRSEDTAVYYCTVYGDYWGQGTTVTVSS
VL: DIQMTQSPSSLSASVGDRVTITCRASQEISGYLSWLQQKPGGAIKRLIYAASTLDSGVPSRFSGSRSGSDYTLTISSLEPEDFADYYCLQYASYPLTFGQGTKLELK
notes: as for B2

koff [2]: 0.00431 s⁻¹
off-rate ratio to that of mAb747c [2]: 352%
B7: HumAb747-56 (antibody, human IgG1, V domains shown)
VH: EVQLVQSGAEVKKPGATVKLSCKASDFNIKDDYMHWVQQAPGKGLEWIGWIVPENGNTEYASKFQGRVTITADTSTDTAYLELSSLRSEDTAVYYCTVYGDYWGQGTTVTVSS
VL: DIQMTQSPSSLSASVGDRVTITCRASQEISGYLSWLQQKPGGAIKRLIYAASTLDSGVPSRFSGSRSGSDYTLTISSLEPEDFADYYCLQYASYPLTFGQGTKLELK
notes: as for B2

Kd (Cyno LAG-3-His): 0.167 nM
koff (Cyno LAG-3-His): 4.7e-05 s⁻¹
kon (Cyno LAG-3-His): 281000 M⁻¹ s⁻¹
Kd (human PD-1-His protein): 8.86 nM
koff (human PD-1-His protein): 0.00103 s⁻¹
kon (human PD-1-His protein): 116000 M⁻¹ s⁻¹
Kd [1]: 2.28 nM
koff [1]: 0.000328 s⁻¹
kon [1]: 144000 M⁻¹ s⁻¹
Kd (Cyno PD-1-His): 3.71 nM
koff (Cyno PD-1-His): 0.000919 s⁻¹
kon (Cyno PD-1-His): 248000 M⁻¹ s⁻¹
B8: FIT107-1-7b-3 (bispecific antibody, human IgG1, kappa, L234A L235A)
chain 1: not shown
chain 2: EVQLVQSGAEVKKPGATVKLSCTASGFNIKDDYMHWVKQRPEQGLDWIGWIVPRNANTVYASKFQGKATITADTSTNTAYLELSSLRSEDTAVYYCTVYGDYWGQGTTVTVSSASTKGPSVFPLAPSSKSTSGGTAALGCLVKDYFPEPVTVSWNSGALTSGVHTFPAVLQSSGLYSLSSVVTVPSSSLGTQTYICNVNHKPSNTKVDKKVEPKSC
chain 3: not shown
notes: FIT-Ig hexamer; outer anti-LAG-3 (HumAb747V-73 with G55A), inner anti-PD-1 (HumAb713-7)
